Measurements taken from publication PMC11445563.

Tests used:
[1] = target: Flag-tagged human melanocortin-5 receptor (MC5R) on HEK293T cells (human) (UniProt P33032)
[2] = target: Flag-tagged human melanocortin-3 receptor (MC3R) on HEK293T cells (human) (UniProt P41968)
Chain of UniProt P41968 (P41968 whole entry): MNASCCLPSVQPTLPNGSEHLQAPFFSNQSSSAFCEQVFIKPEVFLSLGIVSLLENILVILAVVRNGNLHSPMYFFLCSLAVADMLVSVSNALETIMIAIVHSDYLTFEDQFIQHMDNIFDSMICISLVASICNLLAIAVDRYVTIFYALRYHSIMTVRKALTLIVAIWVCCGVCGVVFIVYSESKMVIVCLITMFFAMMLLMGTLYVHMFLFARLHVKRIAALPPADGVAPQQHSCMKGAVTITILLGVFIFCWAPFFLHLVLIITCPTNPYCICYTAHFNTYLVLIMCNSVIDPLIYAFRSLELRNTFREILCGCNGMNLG

Chain of UniProt P33032 (P33032 whole entry): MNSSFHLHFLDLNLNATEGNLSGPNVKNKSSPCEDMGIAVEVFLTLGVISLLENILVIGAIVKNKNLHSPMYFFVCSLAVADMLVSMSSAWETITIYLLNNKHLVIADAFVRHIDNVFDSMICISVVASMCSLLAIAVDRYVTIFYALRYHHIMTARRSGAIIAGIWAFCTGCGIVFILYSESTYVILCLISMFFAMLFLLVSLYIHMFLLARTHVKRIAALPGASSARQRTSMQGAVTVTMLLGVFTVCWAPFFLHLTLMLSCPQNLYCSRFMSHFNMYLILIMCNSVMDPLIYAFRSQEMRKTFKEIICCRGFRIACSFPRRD

cAMP signaling (GloSensor), HEK293 cells with human MC5R, EC50 [1]: 451 nM
cAMP signaling (GloSensor), HEK293 cells with human MC3R, EC50 [2]: 2.1 nM
Substance: setmelanotide (peptide)
